Assay results published in the RNAGym collection of RNA variant scans (doi:10.1073/pnas.2313332121).

B1: TPR t1 (parent)
chain: GACCAAUCUGCCCUCAGAGCUCGAGAACAUCUUCGGAUGCAGAGGAGGCAGGCUUCGGUGGCGCGAUAGCGCCAACGUCCUCAACCUCCAAUGCAUCCCACCACAUGAUGAUGCCUGAAGAGCCUUGGUUUUUUG

Variants of: B1
Assay: polymerase ribozyme fitness, log enrichment relative to wild type (log ratio); higher = more active; in vitro selection for triplet polymerase activity
Procedure, shortened: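 Input and output libraries were sequenced on Illumina after a single in vitro selection round, run in triplicate on PCR-built, transcribed mutant libraries of each subunit of a heterodimeric triplet polymerase ribozyme. Selection annealed libraries to a biotinylated primer, the partner subunit and triplets, incubated them frozen at −7 °C, then gel-excised extended constructs for streptavidin-bead capture and RT-PCR. Genotypes with ≥10 input reads and ≥1 read per output were kept. Fitness is the logarithm, taken in base 2, of genotype enrichment divided by wild-type enrichment, using inverse-variance-weighted replicate averages.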

| Variant | polymerase ribozyme fitness (log ratio) |
| --- | --- |
| A2C A24G A29C G47U G120A | -5.73 |
| A27G G42U A75G | -3.6 |
| C53G C89U | -0.681 |
| C53G C62A C70U U78G | -2.63 |
| G120U C123G | 1.47 |
| C31A A37G C80G C86U U92C A105U A111U | -7.03 |
| C22A U96G | -4.9 |
| C40A G58C C72G U78G C79A | -5.64 |
| U9G C31U | -4.02 |
| C62U U78G C86U | -0.761 |
| C22A G61A A83G U96A C114A | -5.1 |
| G57A G69C | -1.82 |
| A111U C123U G127C | -4.76 |
| G10U G39A C98U | -1.4 |
| U9A A18C G44A C70U G93C | -4.58 |
| A41C A105G | -3.93 |
| G57A G61A A90G C124A | 0.849 |
| G25A A26U A43G G61C U78A C102U G110C | -7.68 |
| C49U G71A U130C | -1.63 |
| C28A A119U | -4.75 |
| C20U G77U | -1.15 |
| G42C C82U | -1.49 |
| U7C G17C C115A | 0.0409 |
| A43C G60A | -2.3 |

| Variant | polymerase ribozyme fitness (log ratio) |
| --- | --- |
| C31U A37U | -4.07 |
| G47U A50U U59C C73A U78A | -2.43 |
| C3U C76G | -1.27 |
| C13U A26G G63C U81A G117C | -6.91 |
| C3G U55C C72U G93A | -4.63 |
| C11G G51A C72A | -2.19 |
| G48U C56U C70U A84G A91U | -4.84 |
| C73U G122A | -0.427 |
| C85G G110C | -4.96 |
| C34A C101G U129A | -4.66 |
| C49A C85A | -1.43 |
| A24U G117U | -6.09 |
| U116C U130G | -1.58 |
| C97U G117A | -2.32 |
| G117C C124A | -1.5 |
| U55C C56A A84C A111G U129A | -2.42 |
| G60A A84U U87A G113U G122A | -5.92 |
| A41G C49G C82U C85U U131G | -1.67 |
| C8G C85U | -0.269 |
| G17U C72U C89A | -3.71 |
| C53G G61C A83G C88G C104A | -4.92 |
| A16U C20A C73G G117U A119U | -5.33 |
| C8U C20U A37U A43U C72U A74U | -2.39 |
| U7C C12A | -0.242 |

| Variant | polymerase ribozyme fitness (log ratio) |
| --- | --- |
| C4A A91U | -3.65 |
| G60U A90G C123A U125A G135A | 1.61 |
| A26C C73A U81C C88A A108G C114G A119U | -6.8 |
| C13A C72U A83C A84G U112C | -1.46 |
| A100C C104U | -0.176 |
| A2C C72U | -2.38 |
| G47A C62U U112C C114U A118G | -3.76 |
| C8A G36U C82A | -0.55 |
| A29C G39A A50U G52A U112C | -5.09 |
| C73U C79G | -2.02 |
| G69C C97U | -2.66 |
| G60A C123G | 1.63 |
| A18U G71A | -2.85 |
| C76A G120U | -0.741 |
| C70G C79G C98U U109G U125A | -7.56 |
| C12U A75G G128A | -1.43 |
| U14A G39A U55A U78C G117C | -7.2 |
| U7C C11A C22A | -5.95 |
| C53U U59G | -0.253 |
| U7A C73G U129G | -2.6 |
| G71U G93A C104U | -0.466 |
| G69U G127A U131A | -2.75 |
| G113C U133A | -2.13 |
| G23A G69U G93U | -4.63 |

| Variant | polymerase ribozyme fitness (log ratio) |
| --- | --- |
| U38A A75U C82U A83C C88G U112C G122A | -2.99 |
| C20G A50U U78C U96G U112A A118G | -6.42 |
| A5U G44C | -1.05 |
| G48U C82G U92G | -4.41 |
| G44U G77A C101A | -1.37 |
| G60U G93C | -0.936 |
| C11U C53U A84G | -1.32 |
| C4U C11G G60A C72G C82U C97U A108G G120A | -3.71 |
| C11G C40A G122A G127U | -1.57 |
| G42U U87C C123A U131C | -0.903 |
| A16C C89U U106A | -2.64 |
| C11G C12A G69C C104A | -2.8 |
| C4U C12U C13U G69C C124G | -0.455 |
| G51U G60U G69C C73G | -4.99 |
| G63A C80A | -4.42 |
| C40U C80A A84U | -4.52 |
| A5U G17C A18U C20U A46C U59A A121G G127C | -5.48 |
| G23A U106A | -3.44 |
| A2U C15G | -4.66 |
| A50U G113U | -2.75 |
| U14A G52U C72U U116C G122U | -4.11 |
| A27U U55G C56A G61A C62G U112C G120U G128A U130C | -7.21 |
| C20U A95C | -2.07 |
| G35A G42C | -5.64 |

| Variant | polymerase ribozyme fitness (log ratio) |
| --- | --- |
| A5U C11U G63C C80A A105C G113U | -5.39 |
| C13G G39U U54A | -2.59 |
| C8U C22G G39C A41G G63A A118U | -3.78 |
| G113C G120U | -3.23 |
| A46U C82A | -1.42 |
| U21A G63C | -0.995 |
| C79G A84C | -2.61 |
| G45U G117C | -4.15 |
| G110A C124G G128C | -3.19 |
| C40U U78C U132A | -1.65 |
| C34G G61A G113U G122U | -7.08 |
| G36C C88A | -2.1 |
| A5C G63A G69U C101U | -1.54 |
| A6G G51A A75U C88G U92C | -6.38 |
| A6U C40G G42C C76A C94U U112C G122A | -2.22 |
| U9A G61U C85U G117U | 0.0255 |
| G39U A84C G122A C123A C124A | 0.979 |
| C53U G60U | 0.63 |
| C28G C62G C98U C124U | -5.55 |
| A16G C53G U87G U96A U112A | -1.33 |
| G52C U116A G120A | -2.46 |
| C56G C72A | -2.48 |
| C12A A37C A50G C53A | -0.87 |
| C11U G57U | -0.202 |

| Variant | polymerase ribozyme fitness (log ratio) |
| --- | --- |
| A6C G10A C15A G25A A43U G45C C86G U106G G113U | -7.45 |
| A6U C40U C123A | 0.808 |
| A50G G51A C72G C88U G110U | -5.05 |
| A5C C8A A37C G42U C104U | -2.13 |
| C11U C15G G51U A119G U133A | -2.44 |
| C49U G135C | -0.277 |
| C56G U92C C123A | -1.13 |
| C12U G42U G77U G117U U126C | -1.93 |
| A74G C80A C82U A118U | -2.93 |
| U54C U78G G117U | -3.85 |
| C34U U125A | -4.8 |
| U96A U112C G127C | -0.056 |
| C12U A111U | -2.01 |
| U59A G77A A83C U92A C102U U109C C114U | -6.72 |
| C11A A105C | -3.07 |
| C20G A43G C89A | -3.78 |
| C13A A50G G71A | -2.13 |
| A27U G39U | -4.25 |
| A26U C53U A74G G77U U125A | -4.77 |
| G10C U112A | 0.23 |
| C86G A111G G135A | -0.134 |
| A5U G10A A41G G61A C101U U133G | -0.742 |
| U87A C102U C104A | -1.05 |
| U133G | -0.279 |

| Variant | polymerase ribozyme fitness (log ratio) |
| --- | --- |
| A5C G117C | -3.15 |
| G10A C64U U129G | -1.78 |
| C70G U78C G120A U130G | -2.19 |
| A41G U54A G61C | -2.03 |
| C8U C88U A121C | 1.33 |
| C40G G110A U132A | -1.48 |
| C3U C53G C88A U112G U129A | -2.53 |
| A37U A50U G52A | -2.94 |
| C73A G113A | -0.815 |
| A27U U30A G61U C72U A84C C98G A111U | -8.22 |
| A6U G48A A91C C114A | -2.36 |
| U78C C80U C89U G117C A119G | -1.72 |
| G45U C72U U78G C101A G122A | -2.81 |
| A16U A29U U30A A41C C49G A90G G120C | -6.59 |
| C4A C40U G61U | -1.92 |
| U7G C8U A90U A121C | 1.04 |
| A5U C72G U81C | -1.14 |
| A29G A37G C40U G61C G127U | -4.48 |
| A41U C104U C124U | 0.576 |
| C20A C89A | -3.94 |
| G42U C79U A100U | -2.8 |
| C13G G60C | -1.52 |
| C12G A26G | -1.93 |
